Measurements reported in patent US20220251198A1.

How the values were obtained:
[1] = target: human FcγRIIIA_158V extracellular domain (human) (UniProt P08637); experiment: SPR (Biacore), FcγR ECD analyte; N=1
[2] = target: human FcγRI extracellular domain (human) (UniProt P12314); experiment: SPR (Biacore), FcγR ECD analyte; N=1
[3] = target: human FcγRIIIA_158F extracellular domain (human) (UniProt P08637); experiment: SPR (Biacore), FcγR ECD analyte; N=1
[4] = target: human FcγRIIA_131H extracellular domain (human) (UniProt P12318); experiment: SPR (Biacore), FcγR ECD analyte; N=1
[5] = target: human FcγRIIb extracellular domain (human) (UniProt P31994); experiment: SPR (Biacore), FcγR ECD analyte; N=1
[6] = target: human FcγRIIA_131R extracellular domain (human) (UniProt P12318); experiment: SPR (Biacore), FcγR ECD analyte; N=1
[7] = target: human FcγRIIA_131R extracellular domain (human) (UniProt P12318); experiment: SPR at 25 C, antibody captured on Protein A, FcγR ECD analyte, steady state
[8] = target: human FcγRIIIA_158F extracellular domain (human) (UniProt P08637); experiment: as above
[9] = target: human FcγRIIA_131H extracellular domain (human) (UniProt P12318); experiment: as above
[10] = target: human FcγRIIIA_158V extracellular domain (human) (UniProt P08637); experiment: as above

Chain of human FcγRIIIA_158F extracellular domain (human) (P08637 17-208): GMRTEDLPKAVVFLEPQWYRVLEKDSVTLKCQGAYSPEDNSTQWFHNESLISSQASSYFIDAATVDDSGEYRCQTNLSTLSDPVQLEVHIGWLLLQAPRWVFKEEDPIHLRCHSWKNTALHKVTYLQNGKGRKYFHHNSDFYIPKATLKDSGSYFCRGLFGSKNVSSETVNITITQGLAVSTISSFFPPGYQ
Chain of human FcγRI extracellular domain (human) (P12314 16-292): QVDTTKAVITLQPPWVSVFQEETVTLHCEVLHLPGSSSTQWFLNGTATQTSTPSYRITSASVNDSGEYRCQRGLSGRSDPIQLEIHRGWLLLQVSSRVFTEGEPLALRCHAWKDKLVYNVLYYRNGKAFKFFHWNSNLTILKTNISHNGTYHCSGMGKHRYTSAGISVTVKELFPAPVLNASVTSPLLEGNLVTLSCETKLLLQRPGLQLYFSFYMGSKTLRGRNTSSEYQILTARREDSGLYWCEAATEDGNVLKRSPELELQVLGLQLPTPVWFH
Chain of human FcγRIIA_131R extracellular domain (human) (P12318 34-217 H167R): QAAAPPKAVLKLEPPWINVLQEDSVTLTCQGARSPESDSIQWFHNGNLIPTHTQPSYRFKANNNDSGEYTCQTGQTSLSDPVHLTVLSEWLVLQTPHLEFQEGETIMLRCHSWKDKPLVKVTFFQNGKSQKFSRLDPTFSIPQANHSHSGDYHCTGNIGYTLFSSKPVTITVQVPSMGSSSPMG
Chain of human FcγRIIA_131H extracellular domain (human) (P12318 34-217): as the sequence (P12318 34-217 H167R) above, with R134H counted along it
Chain of human FcγRIIb extracellular domain (human) (P31994 43-217): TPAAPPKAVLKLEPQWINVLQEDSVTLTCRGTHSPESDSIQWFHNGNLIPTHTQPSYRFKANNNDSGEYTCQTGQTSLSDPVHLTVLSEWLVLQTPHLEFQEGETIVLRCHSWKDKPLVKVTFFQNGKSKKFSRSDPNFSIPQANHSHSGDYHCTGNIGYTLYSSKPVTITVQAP
Chain of human FcγRIIIA_158V extracellular domain (human) (P08637 17-208 F176V): as the sequence (P08637 17-208) above, with F160V counted along it

Row | Substance | Kd [1] [nM] | Kd [2] [nM] | Kd [3] [µM] | Kd [4] [µM] | Kd [5] [µM] | Kd [6] [nM] | Kd [7] [nM] | Kd [8] [nM] | Kd [9] [nM] | Kd [10] [µM]
1 | CD200R antibody IgG1 A330S + P331S + S267G | 2480 | 0.511 | 9.8 | 5.1 | 4.3 |  |  |  |  | 
2 | CD200R antibody IgG1 A330S + S267G | 1660 | 0.168 | 10.8 | 3.31 | 4.99 | 820 |  |  |  | 
3 | CD200R antibody IgG1 K322A |  | 0.0305 | 2.58 | 0.98 | 3.41 | 820 |  |  |  | 
4 | CD200R antibody IgG1 K322A + S267G | 1650 | 0.0705 | 9.99 | 5.02 | 4.43 | 660 |  |  |  | 
5 | CD200R antibody IgG1 N325S + L328F | 7350 | 0.0687 |  | 2.64 | 0.275 | 60 |  |  |  | 
6 | CD200R antibody IgG1 P331S | 450 | 0.0543 | 3.11 | 1.15 | 4.64 | 1140 |  |  |  | 
7 | CD200R antibody IgG1 P331S + S267G | 2080 | 0.142 |  | 5.2 | 4.38 | 770 |  |  |  | 
8 | CD200R antibody IgG1 S267G | 730 | 0.131 | 4.5 | 3.13 | 3.41 | 530 |  |  |  | 
9 | Hu IgG1 (antibody) |  | 0.0552 | 2.59 | 0.71 | 4.2 | 1030 |  |  |  | 
10 | Human IgG4P control antibody | 5470 | 0.385 |  | 5.12 | 3.31 | 2890 |  |  |  | 
11 | IgG1 Control Antibody |  |  |  |  |  |  | 600 | 1000 | 500 | 
12 | IgG4 PAA Control Antibody |  |  |  |  |  |  |  |  |  | 8.9
